Measurements taken from patent US20200369776A1.

Target: full-length monkey CD137 on the cell surface (cynomolgus monkey)
Test: flow cytometry, PMA + ionomycin activated cynomolgus T cells, antibody at 100 nM (Example 4d), Alexa Fluor 647 anti-human Fc; SSC-H against antibody binding

Chain of full-length monkey CD137 on the cell surface (cynomolgus monkey) (Q07011 other isoform, or with tags, fused parts or gaps): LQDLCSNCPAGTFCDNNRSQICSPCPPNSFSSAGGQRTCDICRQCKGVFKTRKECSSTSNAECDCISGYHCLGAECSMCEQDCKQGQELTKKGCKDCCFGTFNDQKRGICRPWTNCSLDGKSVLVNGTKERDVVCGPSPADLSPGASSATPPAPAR

human IgG4 isotype control antibody
percent of cells in the lower right (antibody-positive) quadrant: 1.5%
